Experimental data reported in article doi:10.1101/851261 (2019).
Positions of bridges follow the written chain, without caps; N, C: chain ends. No end group written: not given here.

T1: AjKissR1 (Apostichopus japonicus)
T1 chain: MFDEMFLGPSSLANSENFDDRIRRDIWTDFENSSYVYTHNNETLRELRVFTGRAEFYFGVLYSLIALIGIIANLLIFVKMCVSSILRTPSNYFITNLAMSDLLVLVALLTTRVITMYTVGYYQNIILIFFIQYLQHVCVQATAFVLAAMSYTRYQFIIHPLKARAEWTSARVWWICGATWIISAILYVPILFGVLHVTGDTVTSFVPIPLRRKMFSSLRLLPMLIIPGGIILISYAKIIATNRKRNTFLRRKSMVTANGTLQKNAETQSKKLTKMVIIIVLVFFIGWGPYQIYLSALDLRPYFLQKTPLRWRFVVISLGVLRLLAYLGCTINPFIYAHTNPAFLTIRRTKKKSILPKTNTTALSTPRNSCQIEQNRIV

T2: AjKissR2 (Apostichopus japonicus)
T2 chain: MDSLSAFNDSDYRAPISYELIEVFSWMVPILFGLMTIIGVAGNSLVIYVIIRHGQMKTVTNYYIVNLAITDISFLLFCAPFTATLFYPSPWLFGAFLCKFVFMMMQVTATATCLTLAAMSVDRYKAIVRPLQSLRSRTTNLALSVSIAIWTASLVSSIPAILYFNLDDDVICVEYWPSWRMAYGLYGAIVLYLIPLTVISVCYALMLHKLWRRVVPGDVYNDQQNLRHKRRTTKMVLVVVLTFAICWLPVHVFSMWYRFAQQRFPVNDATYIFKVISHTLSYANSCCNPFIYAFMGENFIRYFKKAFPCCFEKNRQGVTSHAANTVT

B1: AjKiss1a (peptide)
chain: AGSLDCLEASCEDVERRGRQPNRNAHYRTLPF-NH2
modifications: disulfide 6-11 (inferred)
B2: AjKiss1b (peptide)
chain: SAVKNKNKSRARPPLLPF-NH2

Columns and labels:
AjKissR1 = target: T1, AjKissR1; assay: FACS; competition with 1.0 uM FITC-AjKiss1a
AjKissR2 = target: T2, AjKissR2; assay: FACS; competition with 1.0 uM FITC-AjKiss1a

Binder	IC50 (AjKissR1)	IC50 (AjKissR2)
B1	568 nM	
B2		1250 nM
